B1: Protein phosphatase 1 regulatory subunit 12A (Homo sapiens), O14974 (parent)
chain: MKMADAKQKRNEQLKRWIGSETDLEPPVVKRQKTKVKFDDGAVFLAACSSGDTDEVLKLLHRGADINYANVDGLTALHQACIDDNVDMVKFLVENGANINQPDNEGWIPLHAAASCGYLDIAEFLIGQGAHVGAVNSEGDTPLDIAEEEAMEELLQNEVNRQGVDIEAARKEEERIMLRDARQWLNSGHINDVRHAKSGGTALHVAAAKGYTEVLKLLIQAGYDVNIKDYDGWTPLHAAAHWGKEEACRILVDNLCDMEMVNKVGQTAFDVADEDILGYLEELQKKQNLLHSEKRDKKSPLIESTANMDNNQSQKTFKNKETLIIEPEKNASRIESLEQEKVDEEEEGKKDESSCSSEEDEEDDSESEAETDKTKPLASVTNANTSSTQAAPVAVTTPTVSSGQATPTSPIKKFPTTATKISPKEEERKDESPATWRLGLRKTGSYGALAEITASKEGQKEKDTAGVTRSASSPRLSSSLDNKEKEKDSKGTRLAYVAPTIPRRLASTSDIEEKENRDSSSLRTSSSYTRRKWEDDLKKNSSVNEGSTYHKSCSFGRRQDDLISSSVPSTTSTPTVTSAAGLQKSLLSSTSTTTKITTGSSSAGTQSSTSNRLWAEDSTEKEKDSVPTAVTIPVAPTVVNAAASTTTLTTTTAGTVSSTTEVRERRRSYLTPVRDEESESQRKARSRQARQSRRSTQGVTLTDLQEAEKTIGRSRSTRTREQENEEKEKEEKEKQDKEKQEEKKESETSREDEYKQKYSRTYDETYQRYRPVSTSSSTTPSSSLSTMSSSLYASSQLNRPNSLVGITSAYSRGITKENEREGEKREEEKEGEDKSQPKSIRERRRPREKRRSTGVSFWTQDSDENEQEQQSDTEEGSNKKETQTDSISRYETSSTSAGDRYDSLLGRSGSYSYLEERKPYSSRLEKDDSTDFKKLYEQILAENEKLKAQLHDTNMELTDLKLQLEKATQRQERFADRSLLEMEKRERRALERRISEMEEELKMLPDLKADNQRLKDENGALIRVISKLSK

This assay covers variants of B1. The note with it: with dapk3_human DAPK3, O43293.
Chain of dapk3_human DAPK3, O43293 (O43293 whole entry, looked up): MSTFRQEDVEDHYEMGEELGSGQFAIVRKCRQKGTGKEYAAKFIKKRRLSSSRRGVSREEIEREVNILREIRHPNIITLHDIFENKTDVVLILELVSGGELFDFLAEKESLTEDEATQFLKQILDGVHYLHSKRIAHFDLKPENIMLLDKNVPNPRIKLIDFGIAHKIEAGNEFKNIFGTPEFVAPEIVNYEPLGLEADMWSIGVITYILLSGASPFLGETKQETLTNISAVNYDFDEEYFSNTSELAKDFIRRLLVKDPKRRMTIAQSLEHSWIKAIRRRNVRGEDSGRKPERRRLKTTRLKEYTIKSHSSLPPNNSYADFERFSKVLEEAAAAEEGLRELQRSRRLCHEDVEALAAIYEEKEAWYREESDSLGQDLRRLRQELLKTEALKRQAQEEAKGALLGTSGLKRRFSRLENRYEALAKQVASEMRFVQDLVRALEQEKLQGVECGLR
Consider L1007A;L1014A;L1021A;L1028A, for which the “effect of a mutation on the interaction” value is reported as “disrupting interaction”.

Values taken from IntAct's records for PubMed 15292222.
